In patent US20170334988A1 (WALTER AND ELIZA HALL INSTITUTE OF MEDICAL RESEARCH, published 2017):
Ends that are not written are not given here. * marks the point of attachment. Biotin = O=C1N[C@H]2[C@H](CS[C@H]2CCCCC(=O)*)N1

Experiments:
[1] = biological target: T1, human BakΔC25 protein (residues 1-186 of SwissProt Accession No. Q16611.1) (human, UniProt Q16611 1-186); experiment: SPR, BIAcore 3000
T1 construct: also called humanAC25 Bak protein; hBakAC
T1 sequence: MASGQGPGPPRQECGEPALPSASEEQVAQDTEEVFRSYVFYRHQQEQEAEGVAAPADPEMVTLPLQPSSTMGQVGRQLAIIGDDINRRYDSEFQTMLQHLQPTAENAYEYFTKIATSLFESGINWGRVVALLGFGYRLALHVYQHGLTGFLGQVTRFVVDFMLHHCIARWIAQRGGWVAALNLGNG

[2] = biological target: T2, Bak loop peptide 46EQEAEGVAAPADPEMVTLPLQPSS69 (human); experiment: SPR, BIAcore 3000
T2 construct: also called Bak peptide (residues E46 to S69 of human Bak)
T2 peptide: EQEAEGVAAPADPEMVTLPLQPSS

[3] = biological target: T3, human Bak 15-mer peptide 1-15; experiment: peptide ELISA, A405
T3 construct: member of m17
T3 peptide: Biotin-SGSGMASGQGPGPPRQECG
Experimental: (§1) Since most epitopes were linear, further mapping was performed using peptide arrays. Two arrays of overlapping 15-mer peptides (each offset by 10 residues) that collectively spanned the entire sequences of human and mouse Bak were designed. Biotinylated peptides were immobilized on streptavidin-coated plates and each antibody tested by ELISA.

[4] = biological target: T4, mouse Bak 15-mer peptide 71-85; experiment: peptide ELISA, A405
T4 construct: member of m18
T4 peptide: Biotin-SGSGQVGRQLALIGDDINR
Experimental: as §1

[5] = biological target: T5, mouse Bak 15-mer peptide 81-95; experiment: peptide ELISA, A405
T5 construct: member of m18
T5 peptide: Biotin-SGSGDDINRRYDTEFQNLL
Experimental: as §1

[6] = biological target: T6, human Bak 15-mer peptide 21-35; experiment: peptide ELISA, A405
T6 construct: member of m17
T6 peptide: Biotin-SGSGSASEEQVAQDTEEVF
Experimental: as §1

[7] = biological target: T7, human Bak 15-mer peptide 31-45; experiment: peptide ELISA, A405
T7 construct: member of m17
T7 peptide: Biotin-SGSGTEEVFRSYVFYRHQQ
Experimental: as §1

[8] = biological target: T8, human Bak 15-mer peptide 41-55; experiment: peptide ELISA, A405
T8 construct: member of m17
T8 peptide: Biotin-SGSGYRHQQEQEAEGVAAP
Experimental: as §1

[9] = biological target: T9, human Bak 15-mer peptide 51-65; experiment: peptide ELISA, A405
T9 construct: member of m17
T9 peptide: Biotin-SGSGGVAAPADPEMVTLPL
Experimental: as §1

[10] = biological target: T10, human Bak 15-mer peptide 81-95; experiment: peptide ELISA, A405
T10 construct: member of m17
T10 peptide: Biotin-SGSGIGDDINRRYDSEFQT
Experimental: as §1

[11] = biological target: T11, mouse Bak 15-mer peptide 21-35; experiment: peptide ELISA, A405
T11 construct: member of m18
T11 peptide: Biotin-SGSGSEQQVAQDTEEVFRS
Experimental: as §1

[12] = biological target: T12, mouse Bak 15-mer peptide 31-45; experiment: peptide ELISA, A405
T12 construct: member of m18
T12 peptide: Biotin-SGSGEVFRSYVFYLHQQEQ
Experimental: as §1

[13] = biological target: T13, mouse Bak 15-mer peptide 41-55; experiment: peptide ELISA, A405
T13 construct: member of m18
T13 peptide: Biotin-SGSGHQQEQETQGAAAPAN
Experimental: as §1

[14] = biological target: T14, human Bak 15-mer peptide for residues 11-25 (human, UniProt Q16611 11-25); experiment: peptide ELISA, A405
T14 construct: range 11-25
T14 peptide: Biotin-SGSGRQECGEPALPSASEE
Experimental: as §1

[15] = biological target: T15, SEEQVAQD; experiment: peptide ELISA, A405
T15 construct: member of m19; also called hBak 8-mer 23-30
T15 peptide: Biotin-SGSGSEEQVAQD

[16] = biological target: T16, EEQVAQDT; experiment: peptide ELISA, A405
T16 construct: member of m19; also called hBak 8-mer 24-31
T16 peptide: Biotin-SGSGEEQVAQDT

[17] = biological target: T17, EQVAQDTE; experiment: peptide ELISA, A405
T17 construct: member of m19; also called hBak 8-mer 25-32
T17 peptide: Biotin-SGSGEQVAQDTE

[18] = biological target: T18, QVAQDTEE; experiment: peptide ELISA, A405
T18 construct: member of m19; also called hBak 8-mer 26-33
T18 peptide: Biotin-SGSGQVAQDTEE

[19] = biological target: T19, VAQDTEEV; experiment: peptide ELISA, A405
T19 construct: member of m19; also called hBak 8-mer 27-34
T19 peptide: Biotin-SGSGVAQDTEEV

[20] = biological target: T20, AQDTEEVF; experiment: peptide ELISA, A405
T20 construct: member of m19; also called hBak 8-mer 28-35
T20 peptide: Biotin-SGSGAQDTEEVF

[21] = biological target: T21, QDTEEVFR; experiment: peptide ELISA, A405
T21 construct: member of m19; also called hBak 8-mer 29-36
T21 peptide: Biotin-SGSGQDTEEVFR

[22] = biological target: T22, DTEEVFRS; experiment: peptide ELISA, A405
T22 construct: member of m19; also called hBak 8-mer 30-37
T22 peptide: Biotin-SGSGDTEEVFRS

[23] = biological target: T23, TEEVFRSY; experiment: peptide ELISA, A405
T23 construct: member of m19; also called hBak 8-mer 31-38
T23 peptide: Biotin-SGSGTEEVFRSY

[24] = biological target: T24, EEVFRSYV; experiment: peptide ELISA, A405
T24 construct: member of m19; also called hBak 8-mer 32-39
T24 peptide: Biotin-SGSGEEVFRSYV

[25] = biological target: T25, EVFRSYVF; experiment: peptide ELISA, A405
T25 construct: member of m19; also called hBak 8-mer 33-40
T25 peptide: Biotin-SGSGEVFRSYVF

[26] = biological target: T26, VFRSYVFY; experiment: peptide ELISA, A405
T26 construct: member of m19; also called hBak 8-mer 34-41
T26 peptide: Biotin-SGSGVFRSYVFY

[27] = biological target: T27, FRSYVFYR; experiment: peptide ELISA, A405
T27 construct: member of m19; also called hBak 8-mer 35-42
T27 peptide: Biotin-SGSGFRSYVFYR

[28] = biological target: T28, RSYVFYRH; experiment: peptide ELISA, A405
T28 construct: member of m19; also called hBak 8-mer 36-43
T28 peptide: Biotin-SGSGRSYVFYRH

[29] = biological target: T29, SYVFYRHQ; experiment: peptide ELISA, A405
T29 construct: member of m19; also called hBak 8-mer 37-44
T29 peptide: Biotin-SGSGSYVFYRHQ

[30] = biological target: T30, EAEGVAAP; experiment: peptide ELISA, A405
T30 construct: member of m19; also called hBak 8-mer 48-55
T30 peptide: Biotin-SGSGEAEGVAAP

[31] = biological target: T31, AEGVAAPA; experiment: peptide ELISA, A405
T31 construct: member of m19; also called hBak 8-mer 49-56
T31 peptide: Biotin-SGSGAEGVAAPA

[32] = biological target: T32, EGVAAPAD; experiment: peptide ELISA, A405
T32 construct: member of m19; also called hBak 8-mer 50-57
T32 peptide: Biotin-SGSGEGVAAPAD

[33] = biological target: T33, GVAAPADP; experiment: peptide ELISA, A405
T33 construct: member of m19; also called hBak 8-mer 51-58
T33 peptide: Biotin-SGSGGVAAPADP

[34] = biological target: T34, VAAPADPE; experiment: peptide ELISA, A405
T34 construct: member of m19; also called hBak 8-mer 52-59
T34 peptide: Biotin-SGSGVAAPADPE

[35] = biological target: T35, human Bak 8-mer peptide YVFYRHQQ (residues 38-45) (human); experiment: peptide ELISA, A405
T35 peptide: Biotin-SGSGYVFYRHQQ

[36] = biological target: T2, Bak loop peptide …; experiment: ITC at 25° C., Ab at 5 µM and peptide at 100 µM
Experimental: (§2) FIG. 19: Isothermal Titration Microcalorimetry binding profile of 26/05-7D10-17-13 with loop peptide (⁴⁶[…]⁶⁹; SEQ ID NO: 21) at 25° C. A) Titration with Ab at 5 μM and peptide at 100 μM.
(§3) ITC experiments were performed using a MicroCal iTC 200 instrument from GE. Injections of 2.43 μl of peptide solution were added from a computer-controlled microsyringe at an interval of 3 min into the sample solution of antibody (cell volume=300 μl) with stirring at 1000 rpm. Titrations were done at pH 7.2 using […] phosphate-buffered saline. The experimental data were fitted to a theoretical titration curve using software supplied by Microcal.

[37] = biological target: T2, Bak loop peptide …; experiment: ITC at 25° C., Ab at 2.5 µM and peptide at 50 µM
Experimental: as §2, §3

[38] = biological target: T2, Bak loop peptide …; experiment: ITC at 25 °C, Ab 5 µM, peptide 100 µM, OneSites model
Experimental: as §2, §3

[39] = biological target: T2, Bak loop peptide …; experiment: ITC at 25 °C, Ab 2.5 µM, peptide 50 µM, OneSites model
Experimental: as §2, §3

[40] = biological target: T36, human Bak G51C (human, UniProt Q16611 2-211); experiment: immunoprecipitation from membranes incubated with or without tBid, western blot
T36 construct: whole, on cells; In membrane fractions
T36 sequence (looked up): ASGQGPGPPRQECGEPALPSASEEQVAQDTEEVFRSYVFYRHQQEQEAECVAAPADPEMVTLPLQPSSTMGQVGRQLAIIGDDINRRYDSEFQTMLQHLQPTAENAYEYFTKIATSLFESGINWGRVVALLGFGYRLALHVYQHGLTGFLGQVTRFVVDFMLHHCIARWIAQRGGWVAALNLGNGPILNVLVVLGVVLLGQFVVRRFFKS
Experimental: FIG. 4: Ability of antibodies to recognize Bak in different conformations. Membrane fractions from cells expressing Bak (as indicated) were incubated (30 min, 30° C.) with (+) or without (−) Bid, solubilized with digitonin, and incubated with the Bak antibodies shown. Bak in immunoprecipitates and whole cell lysate controls was detected by western blot using the 4B5 antibody. Data are representative of at least two independent experiments ND, not done.
Following activation of Bak in membrane fractions, samples were solubilized by incubation with 1% digitonin on ice for at least 30 min. […] After removing beads by repeated washes in Onyx buffer, lysates were incubated with constant agitation for 2 h at 4° C. with 4 ug/ml anti-Bak antibody, followed by incubation for 1 h at 4° C. with additional pre-washed Sepharose G beads. Immune complexes were isolated by centrifugation (13000 rpm, 2 min, 4° C.), washed 4 times with Onyx buffer, resuspended in sample buffer containing 2-mercaptoethanol and analyzed by western blotting.

B1: 26/05-7D10-17-13 antibody (antibody, V domains shown)
VH: EVELVESGGDLVQPGRSLKLSCAASGFTFSNLAMAWVRQTPTKGLEWVASISPAGITTYYRDSVKGRFTISRDNARNTQYLQMDSLRSEDTATYYCARHTGKSSFFDYWGQGVMVTVSS
VL: DVQMTQSPSYLAASPGESVSISCKATENINTYLAWYQAKPGKTTKLLLYSGSTLQSGTPSRFSGSGSGTDFTLTISSLEPEDFAVYYCQQHNEYPLTFGSGTKLEIK
notes: Rat IgG monoclonal antibody from hybridoma SW1 (ECACC 15041601), WEHI monoclonal antibody facility; also called 26/05-7D10-17-13 MAb; 26/05-7D 10-17-13 anti-Bak antibody
With B1 the Kd [1] was 0.466 nM, the Kd [2] was 2.9 nM and the binding result [3] was “no binding”. B1: no binding [4]; no binding [5]; no binding [6]. B1: no binding [7]; binds [8]; binds [9]. B1: no binding [10]; no binding [11]; no binding [12]. B1: binds [13]; no binding [14]; no binding [15]. B1: no binding [16]; no binding [17]; no binding [18]. B1: no binding [19]; no binding [20]; no binding [21]. B1: no binding [22]; no binding [23]; no binding [24]. B1: no binding [25]; no binding [26]; no binding [27]. B1: no binding [28]; no binding [29]; binds [30]. B1: binds [31]; binds [32]; binds [33]. For the same binder, the binding result [34] was “binds”, the binding result [35] was “no binding” and the Kd [36] was under 4.3 nM. For the same binder, the Kd [37] was under 4 nM, the Ka [38] was 2.34e+08 M⁻¹ and the ΔH [38] was -23.1 kcal/mol. The ΔS [38] was -39.2 cal/mol/deg, the Ka [39] was 2.26e+08 M⁻¹ and the ΔH [39] was -29.3 kcal/mol. For the same binder, the ΔS [39] was -60 cal/mol/deg and the binding result [40] was “no binding”.
